Reference: patent US20180127493A1 (ESBATECH AN ALCON BIOMEDICAL RESEARCH UNIT, published 2018)

Columns and labels:
[1] = molecular target: VEGF (as used in the VEGFR competition ELISA); assay: competition ELISA, VEGF binding to hVEGFR1; ratio to reference Luc
[2] = molecular target: T1, recombinant human VEGF165 (PeproTech EC Ltd.) (human, UniProt P15692-4 27-191); assay: SPR, BIAcore T100, hVEGF165 amine-coupled on CM4 chip, scFv as analyte
T1 construct: Amine-coupled to a CM4 chip; also called hVEGF165
Experimental: The Biacore-binding ability of scFvs was tested and the binding affinity was measured using the exemplary surface plasmon resonance method with BIAcore™-T100. […] For the surface plasmon resonance experiment, carboxymethylated dextran biosensor chips (CM4, GE Healthcare) were activated with N-ethyl-N′-(3-dimethylaminopropyl) carbodiimide hydrochloride and N-hydroxysuccinimide according to the supplier's instructions. […] The 4th flow cell of each chip was treated similarly except no proteins were immobilized prior to blocking, and the flow cell was used as in-line reference. […] The apparent dissociation rate constant (kd), the apparent association rate constant (kₐ) and the apparent dissociation equilibrium constant (KD) were calculated using one-to-one Langmuir binding model with BIAcore T100 evaluation Software version 1.1.

T1 sequence (P15692 other isoform, or with tags, fused parts or gaps limits assumed, form in doubt): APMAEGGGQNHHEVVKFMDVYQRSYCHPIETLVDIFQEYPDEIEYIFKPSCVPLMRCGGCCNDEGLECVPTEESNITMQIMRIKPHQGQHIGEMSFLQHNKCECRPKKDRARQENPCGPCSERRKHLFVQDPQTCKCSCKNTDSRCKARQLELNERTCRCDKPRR
VEGF (as used in the VEGFR competition ELISA), sequence (P15692 whole entry): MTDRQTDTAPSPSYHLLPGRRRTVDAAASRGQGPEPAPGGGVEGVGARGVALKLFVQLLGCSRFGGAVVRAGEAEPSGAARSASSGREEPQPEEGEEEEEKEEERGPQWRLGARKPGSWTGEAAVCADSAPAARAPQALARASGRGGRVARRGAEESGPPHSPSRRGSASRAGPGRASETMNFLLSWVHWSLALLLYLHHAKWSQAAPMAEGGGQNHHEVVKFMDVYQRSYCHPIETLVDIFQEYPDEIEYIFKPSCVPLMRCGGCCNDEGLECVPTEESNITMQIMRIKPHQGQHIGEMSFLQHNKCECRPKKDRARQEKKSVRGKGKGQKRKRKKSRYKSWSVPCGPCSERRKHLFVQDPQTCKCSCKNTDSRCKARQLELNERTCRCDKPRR

| Binder | Rel. activity hVEGR1 comp. ELISA (EC50Luc [nM]/EC50test [nM]) [1] | Kd [2] | koff [2] | kon [2] |
| --- | --- | --- | --- | --- |
| 511-min (scFv, NH2-VL-linker-VH-COOH; Min graft on FW1.4; also called 801) scFv: EIVMTQSPSTLSASVGDRVIITCQASQSINIWLSWYQQKPGKAPKLLIYRASTLASGVPSRFSGSGSGAEFTLTISSLQPDDFATYYCQANYAYSAGYGAAFGQGTKLTVLGGGGGSGGGGSGGGGSGGGGSEVQLVESGGGLVQPGGSLRLSCAASGFSLNTYYMNWVRQAPGKGLEWVSIIAPDDTTYYASWAKSRFTISRDNSKNTLYLQMNSLRAEDTAVYYCAKSGDTTAWGADIWGQGTLVTVSS | 0.7 ratio | 2.53 nM | 0.00128 s⁻¹ | 505000 M⁻¹ s⁻¹ |
| 509-maxII (scFv) EIVMTQSPSTLSASVGDRVIITCQASQNIRIWLSWYQQKPGKAPKLLIYKASTLESGVPSRFSGSGSGTEFTLTISSLQPDDFATYYCQNNAHYSTNGGTFGQGTKLTVLGGGGGSGGGGSGGGGSGGGGSEVQLVESGGGLVQPGGSLRLSCTASGFSLSSYYMSWVRQAPGKGLEWVGILDYVGDTDYASWAKGRFTISKDASKNTVYLQMNSLRAEDTAVYYCARTDDSRGWGLNIWGQGTLVTVSS | 0.09 ratio | 3.37 nM | 0.00282 s⁻¹ | 838000 M⁻¹ s⁻¹ |
| 509-min (scFv, NH2-VL-linker-VH-COOH; Min graft on FW1.4; also called 854) scFv: EIVMTQSPSTLSASVGDRVIITCQASQNIRIWLSWYQQKPGKAPKLLIYKASTLESGVPSRFSGSGSGAEFTLTISSLQPDDFATYYCQNNAHYSTNGGTFGQGTKLTVLGGGGGSGGGGSGGGGSGGGGSEVQLVESGGGLVQPGGSLRLSCAASGFSLSSYYMCWVRQAPGKGLEWVSCLDYVGDTDYASWAKGRFTISRDNSKNTLYLQMNSLRAEDTAVYYCAKTDDSRGWGLNIWGQGTLVTVSS | 2.9 ratio |  |  |  |
| 534-min C-His (scFv, not shown: small tags and cut ends, Min graft with C-His in its name; also called 807) scFv: EIVMTQSPSTLSASVGDRVIITCQASQSINWLSWYQQKPGKAPKLLIYKESTLASGVPSRFSGSGSGAEFTLTISSLQPDDFATYYCQNNYDSGNNGFPFGQGTKLTVLGGGGGSGGGGSGGGGSGGGGSEVQLVESGGGLVQPGGSLRLSCAASGFSLSYYYMSWVRQAPGKGLEWVSIIGPGDYTDYASWAKGRFTISRDNSKNTLYLQMNSLRAEDTAVYYCAKGDDNSGWGEDIWGQGTLVTVSS |  | 34.1 nM | 0.00921 s⁻¹ | 271000 M⁻¹ s⁻¹ |

Second part, the binder after the results:

| Rel. activity hVEGR1 comp. ELISA (EC50Luc [nM]/EC50test [nM]) [1] | Kd [2] | koff [2] | kon [2] | Binder |
| --- | --- | --- | --- | --- |
| 4.8 ratio |  |  |  | 578-min (scFv, NH2-VL-linker-VH-COOH; Min graft on FW1.4; also called 820) scFv: EIVMTQSPSTLSASVGDRVIITCQASEIIHSWLAWYQQKPGKAPKLLIYLASTLASGVPSRFSGSGSGAEFTLTISSLQPDDFATYYCQNVYLASTNGANFGQGTKLTVLGGGGGSGGGGSGGGGSGGGGSEVQLVESGGGLVQPGGSLRLSCAASGFSLTDYYYMTWVRQAPGKGLEWVSFIDPDDDPYYATWAKGRFTISRDNSKNTLYLQMNSLRAEDTAVYYCAKGDHNSGWGLDIWGQGTLVTVSS |
| 57 ratio |  |  |  | 567-min (scFv) EIVMTQSPSTLSASVGDRVIITCQADQSIYIWLSWYQQKPGKAPKLLIYKASTLESGVPSRFSGSGSGAEFTLTISSLQPDDFATYYCQNNAHYSTNGGTFGQGTKLTVLGGGGGSGGGGSGGGGSGGGGSEVQLVESGGGLVQPGGSLRLSCAASGFSLSDYYMCWVRQAPGKGLEWVSCLDYFGSTDDASWAKGRFTISRDNSKNTLYLQMNSLRAEDTAVYYCAKTDDSRGWGLNIWGQGTLVTVSS |
